Assay [1] has as its target T1, human LIGHT (TNFSF14), full length, membrane-bound (214E allele) (human, UniProt O43557 1-240).
T1 construct: also called membrane LIGHT; human membrane LIGHT
Nature of the assay: flow cytometry, EL4-LIGHT cells. (In general: A flow cytometer gives signals particle by particle.)

Assay [2] concerns the target membrane LIGHT without residues 81-84 (EL4-NC-LIGHT cells) (human, UniProt O43557 1-240). Description: cell-based or functional assay.

Numbering of substitutions follows the chain as printed. In names and notes the source's numbering stands.

Broadly, the EC50 is the concentration at which the effect is half-maximal. The low end stands for a more potent agent, the high end for a less potent agent.

T1 sequence (O43557 whole entry K214E): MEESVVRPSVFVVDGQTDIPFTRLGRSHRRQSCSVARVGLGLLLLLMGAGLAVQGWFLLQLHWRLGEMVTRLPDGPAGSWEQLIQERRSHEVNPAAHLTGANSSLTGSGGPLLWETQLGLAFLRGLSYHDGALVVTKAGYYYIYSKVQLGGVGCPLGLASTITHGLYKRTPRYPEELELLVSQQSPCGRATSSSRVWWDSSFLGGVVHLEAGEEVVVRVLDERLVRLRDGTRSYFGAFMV
membrane LIGHT without residues 81-84 (EL4-NC-LIGHT cells), sequence (O43557 other isoform, or with tags, fused parts or gaps): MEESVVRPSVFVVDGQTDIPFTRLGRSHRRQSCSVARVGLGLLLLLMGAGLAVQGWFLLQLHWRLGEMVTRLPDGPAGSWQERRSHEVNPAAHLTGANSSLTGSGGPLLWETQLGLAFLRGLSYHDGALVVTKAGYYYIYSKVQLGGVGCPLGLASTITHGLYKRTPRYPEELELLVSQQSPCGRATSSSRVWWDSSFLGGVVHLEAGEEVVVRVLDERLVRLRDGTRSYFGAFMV

B1: 3B04_var8 (antibody, human IgG4, V domains shown)
VH: QVQLVQSGAEVKKPGASVKVSCKASGYTFTDYEMHWVRQAPGQGLEWMGEIDPETGDTAYAQKFQGRVTLTADKSTSTAYMELSSLRSEDTAVYYCSRETDYFFDYWGQGTLVTVSS
VL: DIQMTQSPSSLSASVGDRVTITCGASENIYGALNWYQRKQGKAPKLLIYGATNLADGVPSRFSGSGSGRDYTLTISSLQPEDFATYYCQNVLTTPWTFGQGTKLEIKR
notes: human IgG4 (S241P, L248E, Kabat); also called 3B04 VL2VH4 (var8)
Regarding B1, in assay [1], the EC50 amounted to 280 pM. The “IC50, inhibition of IL-8 secretion from HT-29 cells (EL4-NC-LIGHT cells)” value (“IC50, inhibition of IL-8 secretion” below) in assay [2] was determined as 50 pM.

B2: 3D12_var13 (antibody, human IgG4, V domains shown)
VH: B1 VH with G26D, Y32S, M34I, M48I, D57G, A61N, Q65K, V68A
VL: B1 VL with G24R, R38Q, Q40P, D56E, F83V, T93S
notes: human IgG4 (S241P, L248E, Kabat); also called 3D12 VL4VH1 (var13)
B2 returned an EC50 in assay [1] of 240 pM. Besides, the “IC50, inhibition of IL-8 secretion” value in assay [2] came to 450 pM.

B3: 3D12_var7 (antibody, human IgG4, V domains shown)
VH: B1 VH with G26D, Y32S, M34I, D57G
VL: B1 VL with F83V, T93S
notes: human IgG4 (S241P, L248E, Kabat); also called 3D12 VL2VH3 (var7)
Molecule B3 returned an EC50 in assay [1] of 380 pM. In addition, the “IC50, inhibition of IL-8 secretion” value in assay [2] is 540 pM.

B4: 3B04_var1 (antibody, human IgG4, V domains shown)
VH: B1 VH with M48I, A61S, Q65K, V68A, L83F
VL: B1 VL with K45Q, P59S
notes: human IgG4 (S241P, L248E, Kabat); also called 3B04 VL1VH1 (var1)
Molecule B4 returned an EC50 in assay [1] of 240 pM. In assay [2], the “IC50, inhibition of IL-8 secretion” value was found to be 50 pM.

B5: 3D12_var11 (antibody, human IgG4, V domains shown)
VH: B1 VH with G26D, Y32S, M34I, D57G
VL: B1 VL with R38Q, Q40P, F83V, T93S
notes: human IgG4 (S241P, L248E, Kabat); also called 3D12 VL3VH3 (var11)
B5 registered a concentration giving a half-maximal response (EC50) in assay [1] of 340 pM. The “IC50, inhibition of IL-8 secretion” value in assay [2] is 550 pM.

B6: 3B04_var6 (antibody, human IgG4, V domains shown)
VH: B1 VH with M48I, A61S, L83F
VL: B1 VL
notes: human IgG4 (S241P, L248E, Kabat); also called 3B04 VL2VH2 (var6)
For B6, the response in assay [1] was half-maximal at 270 pM (EC50). Further, the “IC50, inhibition of IL-8 secretion” value in assay [2] was 80 pM.

B7: 3D12_var6 (antibody, human IgG4, V domains shown)
VH: B1 VH with G26D, Y32S, M34I, M48I, D57G, A61N
VL: B1 VL with F83V, T93S
notes: human IgG4 (S241P, L248E, Kabat); also called 3D12 VL2VH2 (var6)
Molecule B7 gave an EC50 in assay [1] of 310 pM. Also, the “IC50, inhibition of IL-8 secretion” value in assay [2] was found to be 470 pM.

B8: 3B04_var7 (antibody, human IgG4, V domains shown)
VH: B1 VH with L83F
VL: B1 VL
notes: human IgG4 (S241P, L248E, Kabat); also called 3B04 VL2VH3 (var7)
The molecule B8 returned an EC50 in assay [1] of 230 pM. The “IC50, inhibition of IL-8 secretion” value in assay [2] was 50 pM.

B9: 3B04_var15 (antibody, human IgG4, V domains shown)
VH: B1 VH with L83F
VL: B1 VL with G24R, R38Q, Q40P, D56E
notes: human IgG4 (S241P, L248E, Kabat); also called 3B04 VL4VH3 (var15)
B9 gave an EC50 in assay [1] of 390 pM. In assay [2], the “IC50, inhibition of IL-8 secretion” value came out at 100 pM.

B10: 3D12_var14 (antibody, human IgG4, V domains shown)
VH: B1 VH with G26D, Y32S, M34I, M48I, D57G, A61N
VL: B1 VL with G24R, R38Q, Q40P, D56E, F83V, T93S
notes: human IgG4 (S241P, L248E, Kabat); also called 3D12 VL4VH2 (var14)
B10 displayed an EC50 in assay [1] of 230 pM. Besides, the “IC50, inhibition of IL-8 secretion” value in assay [2] was determined as 450 pM.

B11: 3D12_var2 (antibody, human IgG4, V domains shown)
VH: B1 VH with G26D, Y32S, M34I, M48I, D57G, A61N
VL: B1 VL with K45Q, P59S, F83V, T93S
notes: human IgG4 (S241P, L248E, Kabat); also called 3D12 VL1VH2 (var2)
In turn, B11 registered an EC50 in assay [1] of 470 pM. Besides, the “IC50, inhibition of IL-8 secretion” value in assay [2] was 740 pM.

B12: 3B04_var16 (antibody, human IgG4, V domains shown)
VH: B1 VH
VL: B1 VL with G24R, R38Q, Q40P, D56E
notes: human IgG4 (S241P, L248E, Kabat); also called 3B04 VL4VH4 (var16); 3B04 variant 16
B12 yielded a 50% effective concentration (EC50) in assay [1] of 240 pM. Besides, the “IC50, inhibition of IL-8 secretion” value in assay [2] is 100 pM.

B13: 3D12_var9 (antibody, human IgG4, V domains shown)
VH: B1 VH with G26D, Y32S, M34I, M48I, D57G, A61N, Q65K, V68A
VL: B1 VL with R38Q, Q40P, F83V, T93S
notes: human IgG4 (S241P, L248E, Kabat); also called 3D12 VL3VH1 (var9)
With B13, a half-maximal effect in assay [1] (EC50) was put at 360 pM. The “IC50, inhibition of IL-8 secretion” value in assay [2] is 710 pM.

B14: 3D12_var12 (antibody, human IgG4, V domains shown)
VH: B1 VH with Y32S, D57G
VL: B1 VL with R38Q, Q40P, F83V, T93S
notes: human IgG4 (S241P, L248E, Kabat); also called 3D12 VL3VH4 (var12)
In turn, B14 yielded an EC50 in assay [1] of 330 pM. Besides, in assay [2], the “IC50, inhibition of IL-8 secretion” value is 580 pM.

B15: 3B04_var4 (antibody, human IgG4, V domains shown)
VH: B1 VH
VL: B1 VL with K45Q, P59S
notes: human IgG4 (S241P, L248E, Kabat); also called 3B04 VL1VH4 (var4)
B15 yielded an EC50 in assay [1] of 260 pM. Moreover, the “IC50, inhibition of IL-8 secretion” value in assay [2] was 40 pM.

B16: 3B04_var9 (antibody, human IgG4, V domains shown)
VH: B1 VH with M48I, A61S, Q65K, V68A, L83F
VL: B1 VL with R38Q, Q40P
notes: human IgG4 (S241P, L248E, Kabat); also called 3B04 VL3VH1 (var9)
Turning to B16, the EC50 in assay [1] worked out at 260 pM. In assay [2], the “IC50, inhibition of IL-8 secretion” value turned out to be 90 pM.
